In EP1151102B1:
Like-named read-outs stand apart in the source and are kept apart here.

How the values were obtained:
[1] = molecular target: chimeric leptin receptor-EPO receptor (OBR-EPOR) on 32D-OBECA cells (human; murine) (UniProt P48357); assay: cell-based or functional assay
[2] = molecular target: human leptin receptor (short form), membrane-bound, from stably transfected CHO cells (human) (UniProt P48357); assay: 125I-Leptin competition on membranes of CHO cells expressing human leptin receptor; IC50 vs WT
[3] = molecular target: human leptin receptor (short form), membrane-bound, from stably transfected CHO cells (human) (UniProt P48357); assay: as above; remark: listed apart in the source

Row | Substance | Bioactivity Rel. to WT. [1] | Receptor binding Rel. to WT. [2] | Bio-activity Rel. to WT. [1] | Bio activity Rel. to WT. [1] | Receptor binding Rel. to WT. [3]
1 | rHu-Leptin 1-146, site 100b (WAS > NAS) (ligand) | 1.46 rel. to WT | 0.7 rel. to WT | – | – | –
2 | rHu-Leptin 1-146, site 23a (DIS > NIT) (ligand) | 0.53 rel. to WT | – | 0.53 rel. to WT | – | –
3 | rHu-Leptin 1-146, site 100a (PWAS > SNAT) (ligand) | 0.9 rel. to WT | 0.6 rel. to WT | – | – | –
4 | rHu-Leptin 1-146, site 119 (YST > NST) (ligand) | 0.02 rel. to WT | 0.8 rel. to WT | – | – | –
5 | rHu-Leptin 1-146, site 99 (PWA > NWT) (ligand) | 0.5 rel. to WT | 0.9 rel. to WT | – | – | –
6 | rHu-Leptin 1-146, site 118 (GYS > NYT) (ligand) | 3.8 rel. to WT | 0.8 rel. to WT | – | – | –
7 | rHu-Leptin 1-145 (ligand) | – | 1.3 rel. to WT | – | 0.14 rel. to WT | –
8 | rHu-Leptin 1-146, site 100d (PWAS > ANAT) (ligand) | 0.26 rel. to WT | 1.45 rel. to WT | – | – | –
9 | rHu-Leptin 1-146, site 93 (SKS > NKT) (ligand) | 1.1 rel. to WT | – | – | – | –
10 | rHu-Leptin 1-146, site 67 (SMP > NMT) (ligand) | 0.52 rel. to WT | 0.8 rel. to WT | – | – | –
11 | rHu-Leptin 1-146, site 116 (ASG > NST) (ligand) | 0.56 rel. to WT | 0.9 rel. to WT | – | – | –
12 | rHu-Leptin 1-146, site 43 (PGL > NGT) (ligand) | 0.014 rel. to WT | 1.5 rel. to WT | – | – | –
13 | rHu-Leptin 1-146, site 48 (ILT > NLT) (ligand) | 0.53 rel. to WT | 0.8 rel. to WT | 0.53 rel. to WT | – | –
14 | rHu-Leptin 1-146, site 7 (QDD > NDT) (ligand) | 0.04 rel. to WT | 1.25 rel. to WT | – | – | –
15 | rHu-Leptin 1-146, site 102 (SGL > NGT) (ligand) | 0.85 rel. to WT | 0.6 rel. to WT | 0.66 rel. to WT | – | 0.5 rel. to WT
16 | rHu-Leptin 1-146, site 35 (KVT > NVT) (ligand) | 0.13 rel. to WT | 0.5 rel. to WT | – | – | –
17 | rHu-Leptin 1-146, site 103 (GLE > NLT) (ligand) | 0.73 rel. to WT | 1 rel. to WT | – | – | –
18 | rHu-Leptin 1-146, site 71 (RNV > NNT) (ligand) | 0.3 rel. to WT | 1.9 rel. to WT | – | – | –
19 | rHu-Leptin 1-146, site 101 (ASG > NST) (ligand) | 0.33 rel. to WT | 0.7 rel. to WT | – | – | –
20 | rHu-Leptin 1-146, site 37 (TGL > NGT) (ligand) | 0.043 rel. to WT | 0.4 rel. to WT | – | – | –
21 | rHu-Leptin 1-146, site 97 (HLP > NLT) (ligand) | 1.1 rel. to WT | – | – | – | –
22 | rHu-Leptin 1-146, site 26 (HTQ > NTT) (ligand) | 0.01 rel. to WT | 1.5 rel. to WT | – | – | –

More lines, now with the values ahead:

Row | Bioactivity Rel. to WT. [1] | Receptor binding Rel. to WT. [2] | Bio-activity Rel. to WT. [1] | Bio activity Rel. to WT. [1] | Receptor binding Rel. to WT. [3] | Substance
23 | 0.01 rel. to WT | 0.7 rel. to WT | – | – | – | rHu-Leptin 1-146, site 120 (STE > NTT) (ligand)
24 | 1 rel. to WT | 1 rel. to WT | – | – | – | rHu-Leptin 1-146, site 70 (SRN > NRT) (ligand)
25 | 0.5 rel. to WT | 0.6 rel. to WT | – | – | – | rHu-Leptin 1-146, site 29 (SVS > NVT) (ligand)
26 | 0.83 rel. to WT | > 1.9 rel. to WT | – | – | – | rHu-Leptin 1-146, site 100e (WAS > TAS) (ligand)
27 | – | 1 rel. to WT | – | 0.95 rel. to WT | – | rHu-Leptin 1-146 expressed with the native human erythropoietin signal peptide (ligand)
28 | 0.67 rel. to WT | 1.6 rel. to WT | 0.8 rel. to WT | – | – | rHu-Leptin 1-146, site 92 (FSK > NST) (ligand)
29 | 0.036 rel. to WT | 0.2 rel. to WT | – | – | – | rHu-Leptin 1-146, site 38 (GLD > NLT) (ligand)
30 | 0.036 rel. to WT | 0.8 rel. to WT | – | – | – | rHu-Leptin 1-146, site 68 (MPS > NAT) (ligand)
31 | 0.27 rel. to WT | 0.11 rel. to WT | – | – | – | rHu-Leptin 1-146, site 46 (HPI > NPT) (ligand)
32 | – | 0.5 rel. to WT | 0.79 rel. to WT | – | – | rHu-Leptin 1-146, site 23a (DIS > NIT), erythropoietin signal peptide (ligand)
33 | < 0.02 rel. to WT | 2.2 rel. to WT | – | – | – | rHu-Leptin 1-146, site 77 (SND > NNT), expressed with the erythropoietin signal peptide (ligand)
34 | 0.81 rel. to WT | 0.45 rel. to WT | – | – | – | rHu-Leptin 1-146, site 100c (WAS > NAT) (ligand)
35 | 0.01 rel. to WT | 1.9 rel. to WT | – | – | – | rHu-Leptin 1-146, site 117 (SGY > NGT) (ligand)
36 | 0.84 rel. to WT | 0.66 rel. to WT | 0.84 rel. to WT | – | – | rHu-Leptin 1-146, site 47 (PIL > NIT) (ligand)
37 | 0.006 rel. to WT | 0.9 rel. to WT | – | – | – | rHu-Leptin 1-146, site 115 (EAS > NAT) (ligand)
38 | – | 0.6 rel. to WT | – | 0.36 rel. to WT | – | rHu-Leptin 1-145 expressed with the erythropoietin signal peptide (ligand)
39 | 0.08 rel. to WT | 0.5 rel. to WT | – | – | – | rHu-Leptin 1-146, site 45 (CHP > NHT) (ligand)
40 | 0.78 rel. to WT | 2 rel. to WT | – | – | – | rHu-Leptin 1-146, site 44 (GLH > NLT) (ligand)
41 | 1 rel. to WT | 0.3 rel. to WT | – | – | – | rHu-Leptin 1-146, site 141 (DLS > NLT) (ligand)
42 | 0.13 rel. to WT | 0.7 rel. to WT | – | – | – | rHu-Leptin 1-146, site 27 (TQS > NQT) (ligand)
43 | 0.04 rel. to WT | 0.9 rel. to WT | – | – | – | rHu-Leptin 1-146, site 33 (KQK > NQT) (ligand)
44 | 0.01 rel. to WT | 8 rel. to WT | – | – | – | rHu-Leptin 1-146, site 73 (VIQ > NIT) (ligand)
45 | 0.05 rel. to WT | 1.7 rel. to WT | – | – | – | rHu-Leptin 1-146, site 5 (KVQ > NVT) (ligand)
46 | 0.26 rel. to WT | 1.7 rel. to WT | – | – | – | rHu-Leptin 1-146, site 72 (NVI > NVT) (ligand)
47 | 1.1 rel. to WT | 0.6 rel. to WT | 1.1 rel. to WT | – | – | rHu-Leptin 1-146, site 69 (PSR > NST) (ligand)
48 | 0.73 rel. to WT | 1.7 rel. to WT | – | – | – | rHu-Leptin 1-146, site 4 (QKV > NKV) (ligand)
49 | 1.2 rel. to WT | 1.2 rel. to WT | – | – | – | rHu-Leptin 1-146, site 8 (DDT > NDT) (ligand)
50 | 0.02 rel. to WT | 0.4 rel. to WT | – | – | – | rHu-Leptin 1-146, site 25 (SHT > NHT) (ligand)
51 | 1 rel. to WT | 1 rel. to WT | – | 1 rel. to WT | – | rHu-Leptin 1-146 (wild type) (ligand)
52 | – | 3.5 rel. to WT | – | 1.8 rel. to WT | – | rHu-Leptin 1-146 expressed with the erythropoietin signal peptide and human albumin prosequence (ligand)
